Data on one protein can be found in FireProtDB (doi:10.1021/acs.biochem.7b00833).

The conditions of this series: Bacillus subtilis (strain 168); pH 7; 25 °C; Urea; CD; Sodium Phosphate Buffer; whole UniProt chain shown.

B1: SCO1 protein homolog wild type, P54178 (protein)
chain: MKVIKGLTAGLIFLFLCACGGQQIKDPLNYEVEPFTFQNQDGKNVSLESLKGEVWLADFIFTNCETICPPMTAHMTDLQKKLKAENIDVRIISFSVDPENDKPKQLKKFAANYPLSFDNWDFLTGYSQSEIEEFALKSFKAIVKKPEGEDQVIHQSSFYLVGPDGKVLKDYNGVENTPYDDIISDVKSASTLK
In the case of B1, the denaturant m value worked out at 3.51 kcal/mol/M, the “denaturant midpoint (higher = more stable)” value was 2.91 M and the unfolding free energy was 9.93 kcal/mol.
